Experimental data from patent US11028377B2, “Phytase variants YkAPPA having improved pepsin resistance and increased catalytic efficiency” (priority 2017, dated 2021).

How the values were obtained:
[1] = system: Y. kristensenii phytase YkAPPA variant YkAPPA-E230G, SEQ ID NO.5; assay: Kinetic parameters of phytase variant with sodium phytate (double reciprocal method); type: biochemical; conditions: E230G vs wild phytase
Experimental: (§1) According to embodiment of the present invention, the phytase variant YkAPPA-E230G with amino acid sequence as set forth in SEQ ID NO.5 is obtained by mutation at the 230th site of glutamic acid into glycine for phytase with amino acid as set forth in SEQ ID NO.1.
(§2) Gene encoding phytase YkAPPA having the nucleotide sequence as set in SEQ ID NO. 2 from Y. kristensenii was performed with site-directed mutagenesis by Overlap PCR to obtain genes encodng the phytase variants YeAPPA-L162G, YeAPPA-L162A, YeAPPA-E230G, YkAPPA-E230A, YkAPPA-E230S, YkAPPA-E230T, YkAPPA-E230D, YkAPPA-E230P, and YkAPPA-E230R, respectively.
(§3) The modified genes encoding the phytase variants were inserted into expression vector pET-22b (+), and transformed into E coli. Strain BL21 (DE3), which were induced by IPTG in 1 mM, cultivated for 5 h at 24° C. to express the phytase, followed by being purified by columns Ni-NTA and DEAE to obtain the mutant protein with the same molecular weight as that of the wild.
(§4) The effect of pepsin on the activity of the purified mutant phytase was determined by detecting the remaining activity after being treated in pH 2 for 2 hours with the different concentrations of pepsin in a mass ratio to phytase ranging from 1/1000 to 1/1. The activity of phytase was detected by ferric molybdenum sulfate blue method by adding 50 ul of phytase solution to 950 ul of sodium phytate substrate in 1.5 mmol/L to react for 30 min at 37° C., followed by adding 1 mL of 10% (m/v) TCA to stop the reaction, and 2 mL of developing color reagent. After developing, OD is measured at 700 nm to calculate the phytase activity.
(§5) The activity of phytase was measured with sodium phytate as substrate in different concentrations of 0.0625 mmol/L, 0.1 mmol/L, 0.125 mmol/L, 0.2 mmol/L, 0.25 mmol/L, 0.5 mmol/L, 1.0 mmol/L and 1.5 mmol/L at the optimal temperature and pH, followed by calculating the values of km and Vmax by double reciprocal method for Michaelis equation, and Kcat according to the theoretical molecular weight. […] And, the catalytic properties including reaction rate, turnover rate and catalytic efficiency of the other phytase variants were similar to those of the wild phytase.

[2] = system: Y. kristensenii phytase YkAPPA variant YkAPPA-E230A, SEQ ID NO.6; assay: as above; type: biochemical; conditions: E230A vs wild phytase
Experimental: (§6) According to embodiment of the present invention, the phytase variant YkAPPA-E230A with amino acid sequence as set forth in SEQ ID NO.6 is obtained by mutation at the 230th site of glutamic acid into alanine for phytase with amino acid as set forth in SEQ ID NO.1.
as §2, §3, §4, §5

[3] = system: Y. kristensenii phytase YkAPPA variant YkAPPA-L162G, SEQ ID NO.3; assay: as above; type: biochemical; conditions: L162G vs wild phytase
Experimental: (§7) According to embodiment of the present invention, the phytase variant YkAPPA-L162G with amino acid sequence as set forth in SEQ ID NO.3 is obtained by mutation at the 162th site of Leucine into glycine for phytase with amino acid as set forth in SEQ ID NO.1.
as §2, §3, §4, §5

[4] = system: O=P(O)(O)O[C@H]1[C@H](OP(=O)(O)O)[C@@H](OP(=O)(O)O)[C@H](OP(=O)(O)O)[C@@H](OP(=O)(O)O)[C@H]1OP(=O)(O)O; assay: as above; type: biochemical, Y. kristensenii; conditions: other: E230A, optimal pH 4.5 and temperature 55° C.
Experimental: as §6, §2, §3, §4, §5

[5] = system: O=P(O)(O)O[C@H]1[C@H](OP(=O)(O)O)[C@@H](OP(=O)(O)O)[C@H](OP(=O)(O)O)[C@@H](OP(=O)(O)O)[C@H]1OP(=O)(O)O; assay: as above; type: biochemical, Y. kristensenii; conditions: other: E230D, optimal pH 4.5 and temperature 55° C.
Experimental: According to embodiment of the present invention, the phytase variant YkAPPA-E230D with amino acid sequence as set forth in SEQ ID NO.9 is obtained by mutation at the 230th site of glutamic acid into aspartic acid for phytase with amino acid as set forth in SEQ ID NO.1.
as §2, §3, §4, §5

[6] = system: O=P(O)(O)O[C@H]1[C@H](OP(=O)(O)O)[C@@H](OP(=O)(O)O)[C@H](OP(=O)(O)O)[C@@H](OP(=O)(O)O)[C@H]1OP(=O)(O)O; assay: as above; type: biochemical, Y. kristensenii; conditions: other: E230G, optimal pH 4.5 and temperature 55° C.
Experimental: as §1, §2, §3, §4, §5

[7] = system: O=P(O)(O)O[C@H]1[C@H](OP(=O)(O)O)[C@@H](OP(=O)(O)O)[C@H](OP(=O)(O)O)[C@@H](OP(=O)(O)O)[C@H]1OP(=O)(O)O; assay: as above; type: biochemical, Y. kristensenii; conditions: other: E230P, optimal pH 4.5 and temperature 60° C.
Experimental: According to embodiment of the present invention, the phytase variant YkAPPA-E230P with amino acid sequence as set forth in SEQ ID NO.10 is obtained by mutation at the 230th site of glutamic acid into proline for phytase with amino acid as set forth in SEQ ID NO.1.
as §2, §3, §4, §5

[8] = system: O=P(O)(O)O[C@H]1[C@H](OP(=O)(O)O)[C@@H](OP(=O)(O)O)[C@H](OP(=O)(O)O)[C@@H](OP(=O)(O)O)[C@H]1OP(=O)(O)O; assay: as above; type: biochemical, Y. kristensenii; conditions: other: E230R, optimal pH 4.0 and temperature 55° C.
Experimental: According to embodiment of the present invention, the phytase variant YkAPPA-E230R with amino acid sequence as set forth in SEQ ID NO.11 is obtained by mutation at the 230th site of […] for phytase with amino acid as set forth in SEQ ID.
as §2, §3, §4, §5

[9] = system: O=P(O)(O)O[C@H]1[C@H](OP(=O)(O)O)[C@@H](OP(=O)(O)O)[C@H](OP(=O)(O)O)[C@@H](OP(=O)(O)O)[C@H]1OP(=O)(O)O; assay: as above; type: biochemical, Y. kristensenii; conditions: other: E230S, optimal pH 4.5 and temperature 55° C.
Experimental: According to embodiment of the present invention, the phytase variant YkAPPA-E230S with amino acid sequence as set forth in SEQ ID NO.7 is obtained by mutation at the 230th site of glutamic acid into serine for phytase with amino acid as set forth in SEQ ID NO.1.
as §2, §3, §4, §5

[10] = system: O=P(O)(O)O[C@H]1[C@H](OP(=O)(O)O)[C@@H](OP(=O)(O)O)[C@H](OP(=O)(O)O)[C@@H](OP(=O)(O)O)[C@H]1OP(=O)(O)O; assay: as above; type: biochemical, Y. kristensenii; conditions: other: E230T, optimal pH 4.5 and temperature 55° C.
Experimental: According to embodiment of the present invention, the phytase variant YkAPPA-E230T with amino acid sequence as set forth in SEQ ID NO.8 is obtained by mutation at the 230th site of glutamic acid into threonine for phytase with amino acid as set forth in SEQ ID NO.1.
as §2, §3, §4, §5

[11] = system: O=P(O)(O)O[C@H]1[C@H](OP(=O)(O)O)[C@@H](OP(=O)(O)O)[C@H](OP(=O)(O)O)[C@@H](OP(=O)(O)O)[C@H]1OP(=O)(O)O; assay: as above; type: biochemical, Y. kristensenii; conditions: other: L162G, optimal pH 4.5 and temperature 55° C.
Experimental: as §7, §2, §3, §4, §5

[12] = system: O=P(O)(O)O[C@H]1[C@H](OP(=O)(O)O)[C@@H](OP(=O)(O)O)[C@H](OP(=O)(O)O)[C@@H](OP(=O)(O)O)[C@H]1OP(=O)(O)O; assay: Kinetic parameters of phytase with sodium phytate (double reciprocal method); type: biochemical, Y. kristensenii; conditions: other: wild type, optimal pH 4.5 and temperature 55° C.
Experimental: as §2, §3, §4, §5

`O=P(O)(O)O[C@H]1[C@H](OP(=O)(O)O)[C@@H](OP(=O)(O)O)[C@H](OP(=O)(O)O)[C@@H](OP(=O)(O)O)[C@H]1OP(=O)(O)O` [sodium phytate] was tested, and the “Reaction rate Vmax relative to the wild phytase” value [1] was 1.9 times, the “catalytic efficiency Kcat/km relative to the wild phytase” value [1] was 2.1 times and the “conversion rate Kcat relative to the wild phytase” value [1] was 1.9 times. The “Reaction rate Vmax relative to the wild phytase” value [2] was 1.3 times, the “catalytic efficiency relative to the wild phytase” value [2] was 2.1 times and the “conversion rate Kcat relative to the wild phytase” value [2] was 1.3 times. The “Reaction rate Vmax relative to the wild phytase” value [3] was 1.6 to 1.8 times, the “catalytic efficiency relative to the wild phytase” value [3] was 2.1 times and the “conversion rate Kcat relative to the wild phytase” value [3] was 1.6 to 1.8 times.

For “Y. kristensenii phytase YkAPPA variant YkAPPA-E230A, SEQ ID NO.6 (Yersinia kristensenii; E230A)”, the Km [4] was 90 µM, the Vmax [4] was 4530 µmol/min/mg and the kcat [4] was 3470 s⁻¹. The kcat/Km [4] was 3.77e+07 M⁻¹ s⁻¹.

With “Y. kristensenii phytase YkAPPA variant YkAPPA-E230D, SEQ ID NO.9 (Yersinia kristensenii; E230D)” the Km [5] was 90 µM, the Vmax [5] was 3590 µmol/min/mg and the kcat [5] was 2740 s⁻¹. For the same compound, the kcat/Km [5] was 2.91e+07 M⁻¹ s⁻¹.

“Y. kristensenii phytase YkAPPA variant YkAPPA-E230G, SEQ ID NO.5 (Yersinia kristensenii; E230G)” gave a Km [6] of 100 µM, a Vmax [6] of 7100 µmol/min/mg and a kcat [6] of 5430 s⁻¹. It also gave a kcat/Km [6] of 6.17e+07 M⁻¹ s⁻¹.

With “Y. kristensenii phytase YkAPPA variant YkAPPA-E230P, SEQ ID NO.10 (Yersinia kristensenii; E230P)” the Km [7] was 80 µM, the Vmax [7] was 3180 µmol/min/mg and the kcat [7] was 2430 s⁻¹. For the same compound, the kcat/Km [7] was 2.98e+07 M⁻¹ s⁻¹.

For “Y. kristensenii phytase YkAPPA variant YkAPPA-E230R, SEQ ID NO.11 (Yersinia kristensenii; E230R)”, the Km [8] was 110 µM, the Vmax [8] was 4330 µmol/min/mg and the kcat [8] was 3310 s⁻¹. For the same compound, the kcat/Km [8] was 2.99e+07 M⁻¹ s⁻¹.

“Y. kristensenii phytase YkAPPA variant YkAPPA-E230S, SEQ ID NO.7 (Yersinia kristensenii; E230S)” gave a Km [9] of 90 µM, a Vmax [9] of 3800 µmol/min/mg and a kcat [9] of 2900 s⁻¹. It also gave a kcat/Km [9] of 2.93e+07 M⁻¹ s⁻¹.

“Y. kristensenii phytase YkAPPA variant YkAPPA-E230T, SEQ ID NO.8 (Yersinia kristensenii; E230T)” was tested, and the Km [10] was 80 µM, the Vmax [10] was 3250 µmol/min/mg and the kcat [10] was 2480 s⁻¹. It also gave a kcat/Km [10] of 2.98e+07 M⁻¹ s⁻¹.

“Y. kristensenii phytase YkAPPA variant YkAPPA-L162G, SEQ ID NO.3 (Yersinia kristensenii; L162G)” was tested, and the Km [11] was 90 µM, the Vmax [11] was 6320 µmol/min/mg and the kcat [11] was 4840 s⁻¹. It also gave a kcat/Km [11] of 4.61e+07 M⁻¹ s⁻¹.

In the case of “Yersinia (Y.) kristensenii phytase YkAPPA, wild type, SEQ ID NO.1 (Yersinia kristensenii)”, the Km [12] is reported as 90 µM, the Vmax [12] is reported as 3550 µmol/min/mg and the kcat [12] is reported as 2720 s⁻¹. The kcat/Km [12] was 2.94e+07 M⁻¹ s⁻¹.
